Experiments:
Test in all cases: cell-based or functional assay
[1] = molecular target: glycoprotein D of HSV-2 186, on infectious virus (HSV-2 (strain 186))
[2] = molecular target: glycoprotein D of HSV-1 00410 (clinical strain), on infectious virus (HSV-1 (clinical strain 00410))
[3] = molecular target: glycoprotein D of HSV-1 KOS, on infectious virus (HSV-1 (KOS strain), UniProt A1Z0Q5 26-394)
[4] = molecular target: glycoprotein D of HSV-2 00040 (clinical strain), on infectious virus (HSV-2 (clinical strain 00040))

Sequence of glycoprotein D of HSV-1 KOS, on infectious virus (A1Z0Q5 26-394 limits assumed): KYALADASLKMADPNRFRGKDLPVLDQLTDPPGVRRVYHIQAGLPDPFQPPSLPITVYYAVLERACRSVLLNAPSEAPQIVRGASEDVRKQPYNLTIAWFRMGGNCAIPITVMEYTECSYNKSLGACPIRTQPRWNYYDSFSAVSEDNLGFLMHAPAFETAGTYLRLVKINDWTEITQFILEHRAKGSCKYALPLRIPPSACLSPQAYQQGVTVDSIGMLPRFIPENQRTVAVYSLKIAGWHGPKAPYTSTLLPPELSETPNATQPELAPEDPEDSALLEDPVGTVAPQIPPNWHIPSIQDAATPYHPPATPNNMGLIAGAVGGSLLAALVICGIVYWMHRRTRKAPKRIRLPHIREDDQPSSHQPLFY

B1: scFv E425 (scFv, not shown: small tags and cut ends)
scFv: QVQLQQSGAGVKKPGSSVRVSCSASGGTLRTYALSWVRQVPGQGFEWMGRIIPMFGKTDYAQKFQGRLSITADKSMDTGFMELTSLTSEDTAVYYCARDLTTLTSYNWLDIWGQGTLVTVSSGGGGSGGGGSGGGGSETTLTQSPGTLSLSPGERATLSCRASQSVSSNYLAWYQKKPGQAPRLLIYGASSRATGIPDRFSGSGSGTDFTLTINRLEPEDFAVYYCQQYGRSPTFGQGTKVEIKR
IC50, plaque reduction assay in Vero cells (HSV-2 186) [1]: 4.5 nM
IC50, plaque reduction assay in Vero cells (HSV-1 00410) [2]: 1.8 nM
IC50, plaque reduction assay in Vero cells (HSV-1 KOS) [3]: 2.2 nM
IC50, plaque reduction assay in Vero cells (HSV-2 00040) [4]: 1.16 nM
